Experimental data reported in publication PMC3476531, “Synergy of Peptide and Sugar in O-GlcNAcase Substrate Recognition” (Chemistry & Biology, 2012).
Residue numbers refer to the chain shown, from its start. *: point of attachment. βGlcNAc = CC(=O)N[C@@H]1[C@@H](O)[C@H](O)[C@@H](CO)O[C@H]1*

Assays:
[1] = molecular target: T1, human O-GlcNAcase (hOGA) Y69Q (human) (UniProt O60502)
T1 sequence: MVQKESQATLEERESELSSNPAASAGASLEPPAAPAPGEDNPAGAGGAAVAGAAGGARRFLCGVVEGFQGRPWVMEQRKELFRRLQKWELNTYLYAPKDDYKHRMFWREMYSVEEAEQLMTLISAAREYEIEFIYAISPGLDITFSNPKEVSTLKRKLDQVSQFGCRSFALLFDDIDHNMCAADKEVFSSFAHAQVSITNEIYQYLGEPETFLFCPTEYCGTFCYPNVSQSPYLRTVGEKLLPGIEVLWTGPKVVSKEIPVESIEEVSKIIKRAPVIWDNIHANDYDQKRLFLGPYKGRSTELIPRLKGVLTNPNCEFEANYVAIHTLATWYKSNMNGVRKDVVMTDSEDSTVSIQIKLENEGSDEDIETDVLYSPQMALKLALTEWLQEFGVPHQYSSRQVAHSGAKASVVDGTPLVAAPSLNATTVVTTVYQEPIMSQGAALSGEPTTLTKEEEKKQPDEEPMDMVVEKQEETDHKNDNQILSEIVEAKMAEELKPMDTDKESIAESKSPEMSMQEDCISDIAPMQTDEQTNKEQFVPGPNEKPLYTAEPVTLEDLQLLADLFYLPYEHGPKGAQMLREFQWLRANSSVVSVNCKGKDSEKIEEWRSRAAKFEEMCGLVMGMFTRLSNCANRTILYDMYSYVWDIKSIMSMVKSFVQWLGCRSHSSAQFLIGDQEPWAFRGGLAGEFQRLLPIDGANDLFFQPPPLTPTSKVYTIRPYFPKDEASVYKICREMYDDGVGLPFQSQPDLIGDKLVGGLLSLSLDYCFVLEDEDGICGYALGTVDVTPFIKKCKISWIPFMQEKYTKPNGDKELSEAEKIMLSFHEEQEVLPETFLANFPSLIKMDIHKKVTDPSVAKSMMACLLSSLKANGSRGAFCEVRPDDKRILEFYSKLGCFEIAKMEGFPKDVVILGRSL

[2] = molecular target: T2, human O-GlcNAcase (hOGA) Y69S (human) (UniProt O60502)
T2 sequence: T1 sequence with Q69S

B1: TAB1 peptide PVSVPYS(O-GlcNAc)SAQSTS (peptide)
peptide: Ac-PVSVPYS(βGlcNAc)SAQSTS-NH2
SMILES: CC(=O)N[C@H]1[C@H](OC[C@H](NC(=O)[C@H](Cc2ccc(O)cc2)NC(=O)[C@@H]2CCCN2C(=O)[C@@H](NC(=O)[C@H](CO)NC(=O)[C@@H](NC(=O)[C@@H]2CCCN2C(C)=O)C(C)C)C(C)C)C(=O)N[C@@H](CO)C(=O)N[C@@H](C)C(=O)N[C@@H](CCC(N)=O)C(=O)N[C@@H](CO)C(=O)N[C@H](C(=O)N[C@@H](CO)C(N)=O)[C@@H](C)O)O[C@H](CO)[C@@H](O)[C@@H]1O
[1]
  KM of the glycopeptide substrate (substrate competition assay with 4MU-GlcNAc as reporter substrate): 3.6 mM
[2]
  KM of the glycopeptide substrate (substrate competition assay with 4MU-GlcNAc as reporter substrate): > 4 mM
